Test results published in patent publication US20160311911A1, “METHODS FOR TREATING ALLERGIC AIRWAY INFLAMMATION” (priority 2015, published 2016).

Legend:
[1] = molecular target: TLR4 on TLR4^Hi HEK 293 cells (TLR4^Hi, CD14^Null, MD2^Null; InvivoGen) (UniProt O00206); assay: flow cytometry; HEK 293 cells incubated with 100 ug/mL BODIPY-RWPE for 30 minutes on ice, then washed
[2] = molecular target: TLR4, CD14 and MD2 on TCM^Hi HEK 293 cells (TLR4^Hi, CD14^Hi, MD2^Hi; InvivoGen) (UniProt O00206); assay: as above
Sequence of TLR4, CD14 and MD2 on TCM^Hi HEK 293 cells (TLR4^Hi, CD14^Hi, MD2^Hi; InvivoGen) (O00206 24-839 limits assumed, chain 1 of 3): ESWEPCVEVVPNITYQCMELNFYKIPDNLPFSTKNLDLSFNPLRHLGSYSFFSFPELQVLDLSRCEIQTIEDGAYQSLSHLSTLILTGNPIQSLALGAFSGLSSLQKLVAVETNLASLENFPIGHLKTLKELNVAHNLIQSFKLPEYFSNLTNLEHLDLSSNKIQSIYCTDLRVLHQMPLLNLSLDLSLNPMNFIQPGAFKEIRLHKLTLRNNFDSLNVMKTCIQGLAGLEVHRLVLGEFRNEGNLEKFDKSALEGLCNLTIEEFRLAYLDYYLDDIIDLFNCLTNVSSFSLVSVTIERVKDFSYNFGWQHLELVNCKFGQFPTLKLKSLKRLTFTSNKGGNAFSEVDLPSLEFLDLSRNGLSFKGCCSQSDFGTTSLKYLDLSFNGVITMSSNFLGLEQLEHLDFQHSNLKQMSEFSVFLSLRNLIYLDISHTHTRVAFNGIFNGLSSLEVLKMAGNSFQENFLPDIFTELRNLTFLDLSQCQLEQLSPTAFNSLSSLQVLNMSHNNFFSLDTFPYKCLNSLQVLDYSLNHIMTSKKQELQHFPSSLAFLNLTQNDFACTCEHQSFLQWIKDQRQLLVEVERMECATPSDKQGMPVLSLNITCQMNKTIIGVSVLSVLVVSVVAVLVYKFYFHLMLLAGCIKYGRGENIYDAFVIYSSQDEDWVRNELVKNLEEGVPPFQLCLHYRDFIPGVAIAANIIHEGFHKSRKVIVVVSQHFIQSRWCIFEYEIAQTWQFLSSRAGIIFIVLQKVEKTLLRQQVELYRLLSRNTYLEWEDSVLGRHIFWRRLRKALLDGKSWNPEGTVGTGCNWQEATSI
Sequence of TLR4, CD14 and MD2 on TCM^Hi HEK 293 cells (TLR4^Hi, CD14^Hi, MD2^Hi; InvivoGen) (P08571 20-345 limits assumed, chain 2 of 3, further chain): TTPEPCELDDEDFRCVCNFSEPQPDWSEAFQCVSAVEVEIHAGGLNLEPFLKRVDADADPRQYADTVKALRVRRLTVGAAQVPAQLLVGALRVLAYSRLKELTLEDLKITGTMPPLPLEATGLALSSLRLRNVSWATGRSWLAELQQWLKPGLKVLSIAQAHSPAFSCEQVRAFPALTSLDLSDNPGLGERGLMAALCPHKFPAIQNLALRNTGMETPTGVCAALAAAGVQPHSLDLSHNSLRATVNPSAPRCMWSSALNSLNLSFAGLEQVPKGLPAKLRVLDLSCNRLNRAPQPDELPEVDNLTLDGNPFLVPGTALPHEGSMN
Sequence of TLR4, CD14 and MD2 on TCM^Hi HEK 293 cells (TLR4^Hi, CD14^Hi, MD2^Hi; InvivoGen) (Q9Y6Y9 19-160 limits assumed, chain 3 of 3, further chain): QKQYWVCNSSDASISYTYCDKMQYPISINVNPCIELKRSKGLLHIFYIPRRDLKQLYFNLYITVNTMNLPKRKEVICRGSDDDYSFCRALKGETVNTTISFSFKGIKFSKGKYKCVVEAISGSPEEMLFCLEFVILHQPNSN

Sequence of TLR4 on TLR4^Hi HEK 293 cells (TLR4^Hi, CD14^Null, MD2^Null; InvivoGen) (O00206 24-839 limits assumed): as the sequence (O00206 24-839 limits assumed, chain 1 of 3) above

BODIPY-RWPE staining (% by FACS) [1]: < 3%
BODIPY-RWPE staining (% by FACS) [2]: 12.9%
Substance: BODIPY-labeled ragweed pollen extract (RWPE)
